Measured values published in patent US8227212B2, “Cell that expresses a sulfatase and a formylglycine generating enzyme” (Shire Human Genetic Therapies, Inc., priority 2003, dated 2012).
Read-outs that look alike come from different tables or passages of the source. One block for each substance: values may come before it.

Legend:
[1] = biological target: T1, FGE (Bos taurus, UniProt Q0P5L5); assay: Affinity matrices: Affigel 10 derivatized with 16mer peptides, binding of FGE; parameters: species or system bovine
T1 construct: the soluble fraction (reticuloplasm) of bovine testis microsomes served as the starting material; from tissue; host or cells: bovine testis rough microsomes, reticuloplasm
T1 sequence (Q0P5L5 34-374): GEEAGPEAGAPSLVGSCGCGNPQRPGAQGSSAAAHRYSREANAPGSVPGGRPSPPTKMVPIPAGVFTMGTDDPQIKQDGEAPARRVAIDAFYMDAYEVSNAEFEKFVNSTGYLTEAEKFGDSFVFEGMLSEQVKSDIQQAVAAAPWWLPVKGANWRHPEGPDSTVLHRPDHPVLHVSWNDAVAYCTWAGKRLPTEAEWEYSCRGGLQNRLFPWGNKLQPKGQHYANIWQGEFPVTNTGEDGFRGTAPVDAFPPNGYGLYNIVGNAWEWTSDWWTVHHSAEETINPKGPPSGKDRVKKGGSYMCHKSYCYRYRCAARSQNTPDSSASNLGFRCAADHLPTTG
Experimental: Bovine testes were obtained from the local slaughter house and stored for up to 20 h on ice. The parenchyme was freed from connective tissue and homogenized in a waring blendor and by three rounds of motor pottering. Preparation of rough microsomes (RM) by cell fractionation of the obtained homogenate was performed as described (Meyer et al., J. Biol. Chem., 2000, 275:14550-14557) with the following modifications. Three differential centrifugation steps, 20 minutes each at 4° C., were performed at 500 g (JA10 rotor), 3000 g (JA10) and 10000 g (JA20). From the last supernatant the RM membranes were sedimented (125000 g, Ti45 rotor, 45 min, 4° C.), homogenized by motor pottering and layered on a sucrose cushion (50 mM Hepes, pH 7.6, 50 mM KAc, 6 mM MgAc2, 1 mM EDTA, 1.3 M sucrose, 5 mM β-mercaptoethanol). RMs were recovered from the pellet after spinning for 210 minutes at 45000 rpm in a Ti45 rotor at 4° C. Usually 100000-150000 equivalents RM, as defined by Walter and Blobel (Methods Enzymol.,1983, 96:84-93), were obtained from 1 kg of testis tissue. The reticuloplasm, i.e. the luminal content of the RM, was obtained by differential extraction at low concentrations of deoxy Big Chap, as described (Fey et al., J. Biol. Chem., 2001, 276:47021-47028). For FGE purification, 95 ml of reticuloplasm were dialyzed for 20 h at 4° C. against 20 mM Tris/HCl, pH 8.0, 2.5 mM DTT, and cleared by centrifugation at 125000 g for 1 h. 32 ml-aliquots of the cleared reticuloplasm were loaded on a MonoQ HR10/10 column (Amersham Biosciences, Piscataway, N.J.) at room temperature, washed and eluted at 2 ml/min with a linear gradient of 0 to 0.75 M NaCl in 80 ml of the Tris buffer. […] An aliqout of the eluate was substituted with 1 mg/ml bovine serum albumin, dialyzed against buffer A and analyzed for activity. […] The polypeptide composition of the starting material and preparations obtained after the chromatographic steps were monitored by SDSPAGE (15% acrylamide, 0.16% bisacrylamide) and staining with SYPRO Ruby (Bio-Rad Laboratories). […]

[2] = biological target: T1, FGE; assay: In vitro FGE activity assay with [35S] ASA fragments (ribosome-associated nascent chain complexes) as substrate; assay type: biochemical, bovine
Experimental: We had developed an assay for determining FGE activity in microsome extracts using in vitro synthesized [^35S] ASA fragments as substrate. The fragments were added to the assay mixture as ribosome-associated nascent chain complexes. The quantitation of the product included tryptic digestion, separation of the peptides by RP-HPLC and identification and quantitation of the [^35S]-labeled FGly containing tryptic peptide by a combination of chemical derivatization to hydrazones, RP-HPLC separation and liquid scintillation counting (Fey et al., J. Biol. Chem., 2001, 276:47021-47028). For monitoring the enzyme activity during purification, this cumbersome procedure needed to be modified. […] We synthesized the 23mer peptide P23 (SEQ ID NO:33), which corresponds to ASA residues 60-80 with an additional N-acetylated methionine and a C-amidated serine residue to protect the N- and C-terminus, respectively. The cysteine and the FGly containing forms of P23 could be identified and quantified by matrix-assisted laser desorption/ionisation time of flight (MALDI-TOF) mass spectrometry. The presence of the FGly residue in position 11 of P23 was verified by MALDI-TOF post source decay mass spectrometry (see Peng et al., J. Mass Spec., 2003, 38:80-86). […]

[3] = biological target: T1, FGE; assay: In vitro assay for FGE with peptide P23 as substrate (MALDI-TOF); assay type: biochemical; details: incubation with extracts from microsomes of bovine pancreas or bovine testis
Experimental: For monitoring the activity of FGE, the N-acetylated and C-amidated 23mer peptide P23 ([…]) (SEQ ID NO:33) was used as substrate. The conversion of the Cysteine residue in position 11 to FGly was monitored by MALDI-TOF mass spectrometry. A 6 μM stock solution of P23 in 30% acetonitrile and 0.1% trifluoroacetic acid (TFA) was prepared. Under standard conditions 6 pmol of P23 were incubated at 37° C. with up to 10 μl enzyme in a final volume of 30 μl 50 mM Tris/HCl, pH 9.0, containing 67 mM NaCl, 15 μM CaCl2, 2 mM DTT, and 0.33 mg/ml bovine serum albumin. To stop the enzyme reaction 1.5 μl 10% TFA were added. […] Activity (pmol product/h) was calculated on the basis of the peak height of the product divided by the sum of the peak heights of P23 and the product.
We had developed an assay for determining FGE activity in microsome extracts using in vitro synthesized [^35S] […] The quantitation of the product included tryptic digestion, separation of the peptides by RP-HPLC and identification and quantitation of the [^35S]-labeled FGly containing tryptic peptide by a combination of chemical derivatization to hydrazones, RP-HPLC separation and liquid scintillation counting (Fey et al., J. Biol. Chem., 2001, 276:47021-47028). […] The cysteine and the FGly containing forms of P23 could be identified and quantified by matrix-assisted laser desorption/ionisation time of flight (MALDI-TOF) mass spectrometry. […]

[4] = tested on: ARSA, ARSC and ARSE; assay: Co-expression of FGE (SUMF1) and sulfatase cDNAs in cell lines, sulfatase activities; assay type: cell-based, human; details: co-transfection with ARSA, ARSC and ARSE cDNAs in various cell lines
Text: To test the effect of FGE (SUMF1) on additional sulfatase activities in normal cells we overexpressed ARSA (SEQ ID NO:14), ARSC (SEQ ID NO:18) and ARSE (SEQ ID NO:22) cDNAs in various cell lines with and without co-transfection of the FGE (SUMF1) cDNA and measured sulfatase activities.
To test for functional conservation of the FGE (SUMF1) gene during evolution we overexpressed ARSA, ARSC and ARSE cDNAs in various cell lines with and without co-transfection of the […] and measured sulfatase activities.

Substance: ASA65-80: synthetic 16mer peptide corresponding to ASA residues 65-80 containing the sequence motif required for FGly formation (PVSLCTPSRAALLTGR)
binding of FGE to peptide immobilized to Affigel 10 [1]: bound FGE efficiently | inhibition of FGE activity [2]: inhibited the FGE activity

Substance: Ac-MTDFYVPVSLCTPSRAALLTGRS-NH2 [P23]
conversion of the peptide into a FGly containing derivative [3]: up to 95%

Substance: FGE2 (SUMF2): FGE gene paralog located on human chromosome 7 (SEQ ID NOs: 45, 46)
activity of FGE homologs on overexpressed human sulfatases [4]: much weaker

Further lines, results first:

binding of FGE to peptide immobilized to Affigel 10 [1]: efficiently bound FGE
Substance: Ser69 peptide: variant of ASA65-80 with Cys69 replaced by serine, PVSLSTPSRAALLTGR (SEQ ID NO:35) (a variant of the ASA65-80 peptide, in which the Cys69 was replaced by a Serine)

binding of FGE to peptide immobilized to Affigel 10 [1]: did not retain FGE activity | inhibition of FGE activity ([2]; added at 10 mM concentration): did not inhibit FGE activity
Substance: scrambled peptide: variant of ASA65-80 with Cys69, Pro71 and Arg73 scrambled, PVSLPTRSCAALLTGR (SEQ ID NO:34) (a variant of the ASA65-80 peptide, in which residues Cys69, Pro71 and Arg73, critical for FGly formation, were scrambled)
